Patent US20160184454A1, “RAB7L1 INTERACTS WITH LRRK2 TO MODIFY INTRANEURONAL PROTEIN SORTING AND PARKINSON'S DISEASE RISK” (THE TRUSTEES OF COLUMBIA UNIVERSITY IN THE CITY OF NEW YORK, priority 2013, published 2016)

Tests used:
[1] = tested on: Drosophila model of LRRK2 G2019S neurodegeneration; test: Drosophila adult survival: Rab modifier screen of the LRRK2 G2019S early adult lethality phenotype; type: in vivo; settings: for Average adult lifespan: TH-driven Rab GTPase transgene co-expressed with LRRK2 G2019S in Drosophila dopamine neurons, days post-eclosion; for rescue of the LRRK2 G2019S premature mortality phenotype (survival): co-expression with LRRK2 G2019S in Drosophila dopamine neurons
Excerpt: To pursue potential mechanisms of LRRK2 pathology in vivo, a Drosophila model was established. […] Dopamine neuron-selective expression of human familial PD-associated G2019S-mutant LRRK2—using either a tyrosine hydroxylase (TH) (Friggi-Grelin et al., 2003) or dopa decarboxylase (DDC) promoter-Gal4 driver (Fischer et al., 1988)—induced premature mortality of young adult animals (FIG. 4A; nontransgenic mean lifespan 37.1 days+/−1; G2019S mean lifespan 4.8 days+/−0.2), akin to previous reports (Ng et al., 2009).
Subsequently a targeted screen for potential genetic modifiers of the LRRK2 G2019S mutant phenotype was performed, based on the idea that LRRK2 may modify a specific intracellular trafficking process, and focused on RAB7L1. A series of 16 Drosophila Rab genes, (see Table 4; out of 33 identified in Drosophila), or CA or IN forms of these (Zhang et al., 2007), were investigated.
Briefly, LRRK2 G2019S mutants were mated with a panel of previously described transgenic Drosophila strains that allow for overexpression of wild-type (WT) or constitutively active (CA), forms of the Rab genes (Zhang et al., 2007), using a standard balancer chromosome-based mating scheme. Co-expression of a majority of these Rab transgenes with LRRK2 within dopamine neurons produced no effect on the survival of animals co-expressing LRRK2 G2019S (FIG. 4A; Table 4).
(§1) Drosophila were cultured by standard methods on yeast-cornmeal-agar medium at 25° C. Wild-type and mutant G2019S LRRK2 transgenes were expressed specifically in catecholaminergic neurons, including dopamine neurons, using the Gal4-UAS system described (Fischer et al., 1988). Driver lines used include OK6 (motor neuron), Gmr (eye), G14 (muscle), TH (dopaminergic neuron), and DDC (dopaminergic neuron). A UAS-GFP::nuclear localization sequence (NLS) marker was used to visualize nucleii of cells in which trangenes were expressed (stock 4775 (w 1118; P{UAS-GFP.nls}14), Drosophila Stock Center, Bloomington, Ind.). For the RAB screen, UAS-LRRK2 (G2019S) transgenic Drosophila, crossed with the TH-Gal4 driver, were screened against a UAS-Rab transgenic library (Zhang et al., 2007). Crossings were typically performed using standard balancer chromosome techniques. To generate strains in which the homozygous LRRK2 transgene and another (Driver or marker) transgene lay on the same chromosome (III), genetic recombination was using standard techniques. Adult Drosophila mushroom bodies were dissected as in (Wu and Luo, 2006) and imaged immediately, without fixation, using a Zeiss LSM510 Meta confocal fluorescent microscope. For mortality curves, transgenic Drosophila surviving through adult metamorphosis were counted daily, from the day of pupal eclosion onward. Locomotion deficits were assessed by methods know in the art.

[2] = tested on: Lrrk mutant (−/−) Drosophila; test: Negative geotaxis analysis of lrrk mutant Drosophila; type: in vivo; settings: pan-neuronal expression in lrrk mutant (−/−) Drosophila
Experimental: FIG. 11 is a bar graph showing a negative geotaxis analysis of lrrk mutant Drosophila. […] Bars represent Mean times to climb 10 cm upward in a cylinder are represented. Error bars are SEM. ***: p<0.001, for comparison with the non-transgenic group by ANOVA (df=3, F=13.14) followed by Tukey HSD post hoc analysis.
as §1, with “To generate strains in which the homozygous LRRK2 transgene and another (Driver or marker) transgene lay on the same chromosome (III), genetic recombination was using standard techniques. Adult Drosophila mushroom bodies were dissected as in (Wu and Luo, 2006) and imaged immediately, without fixation, using a Zeiss LSM510 Meta confocal fluorescent microscope.” left out

[3] = tested on: Drosophila dopamine neurons; test: Surviving dopaminergic neurons in PPM1 and PPL1 clusters of Drosophila CNS mushroom bodies; type: in vivo; settings: co-expression with LRRK2 G2019S
Excerpt: Next, dopamine neuron survival at the dorsomedial posterior protocerebral (PPM1) and dorsolateral posterior protocerebral (PPL1) clusters of Drosophila CNS mushroom bodies was quantified in terms of the loss of expression of a dopamine neuron-specific nuclear localization signal (NLS)-GFP marker protein, using fluorescent confocal microscopy analysis of whole mounted tissue.
Wild-type and mutant G2019S LRRK2 transgenes were expressed specifically in catecholaminergic neurons, including dopamine neurons, using the Gal4-UAS system described (Fischer et al., 1988). […] A UAS-GFP::nuclear localization sequence (NLS) marker was used to visualize nucleii of cells in which trangenes were expressed (stock 4775 (w 1118; P{UAS-GFP.nls}14), Drosophila Stock Center, Bloomington, Ind.). […] Adult Drosophila mushroom bodies were dissected as in (Wu and Luo, 2006) and imaged immediately, without fixation, using a Zeiss LSM510 Meta confocal fluorescent microscope.

[4] = tested on: rat primary cortical neurons; test: Neurite length assay in transfected primary cortical neuron cultures; type: cell-based; settings: co-transfection with LRRK2 G2019S (0.5 μg/well); test vector 1 μg/well
Excerpt: As 5 candidate genes are present within the PARK16 locus (SLC45A3, NUCKS, RAB7L1, SLC41A1, and PM20D1), each of the genes were experimentally screened for a functional interaction with LRRK2 (FIG. 2A). A previously-described primary rat neuron in vitro culture model was used, in which transient expression of familial PD-associated LRRK2 G2019S or R1441C mutant alleles leads to a marked reduction in neurite process length (MacLeod et al., 2006). […] RAB7L1 is a small cytosolic GTPase, structurally distinct from RAB7 despite its name (also known as RAB29) (Shimizu et al., 1997). […] But the function of RAB7L1 in CNS neurons remains unknown. Orthologues of RAB7L1 in other organisms, including C. elegans Glo-1 and Drosophila melanogaster Lighloid, have been implicated in trafficking to lysosome-related organelles (Hermann et al., 2005) and in the regulation of neurite process length (Grill et al., 2007), reminiscent of LRRK2 mutant phenotypes (MacLeod et al., 2006). Thus this gene was of particular interest.
Sprague-Dawley rat or mouse PI primary dissociated cortical cultures were prepared and transfected essentially as described (Xia et al., 1996) with the following modifications: cells were plated at high density, approximately 250,000 cells/cm2, in 24-well plates with 500 ul medium/well. Culture medium used for plating cells was Neurobasal-A supplemented with 2% B-27 and 10% FBS. At 1 day after plating, medium was changed to reduced serum (1% FBS+added antimitotic agents: 70 μM uridine and 25 μM 5-fluorodeoxyuridine) and replaced weekly thereafter; for transfections no DMSO was added to the transfection mixture, cells were not subjected to glycerol shock, and a total of 3 μg plasmid DNA was used per well. Cells were fixed in 4% PFA and immunostained with mouse α-RAB7L1 (Santa Cruz, 1:100), and rabbit monoclonal α-LRRK2 (Michal J. Fox Foundation MJFF4, 1:100), then with appropriate fluorescent secondaries (Jackson, 1:1000-2000). Neurite length and neurite puncta (defined as swellings greater than 2 um in diameter) were counted for at least 20 neurons per condition. Mean puncta number per neuron was normalized to total average neurite length versus wild-type LRRK2 transfected cells. Fluorescent microscopy was performed using a Nikon TE 2000-S microscope and a Zeiss LSM510 Meta confocal microscope. Images were analyzed using Image-Pro Plus (Mediacybernetics) software version 5.1.0.20.

G2019S: human familial PD-associated G2019S-mutant LRRK2 transgene
mean lifespan ([1]; dopamine neuron-selective expression of the LRRK2 transgene alone (TH or DDC Gal4 driver)): 4.8 days
defective negative geotaxis (time to climb 10 cm) [2]: can be rescued

human LRRK2 WT: wild-type human LRRK2 transgene
phenotype on transgenic expression ([1]; dopamine neuron-selective expression of the LRRK2 transgene alone): did not lead to a discernible phenotype
defective negative geotaxis (time to climb 10 cm) [2]: can be rescued

B1: Rab7WT: TH-driven Drosophila Rab GTPase transgene, wild-type Rab7 (protein, UniProt O76742 1-207, looked up)
Ras-related protein Rab7: MSGRKKSLLKVIILGDSSVGKTSLMNQYVNKRFSNQYKATIGADFCTKEVVVNDRVVTMQIWDTAGQERFQSLGVAFYRGADCCVLVYDVTAPNSFKNLDSWRDEFLIQASPRDPDHFPFVVLGNKVDLDNRQVSTRRAQQWCQSKNDIPYYETSAKEGINVEMAFQVIAKNALELEAEAEVINDFPDQITLGSQNNRPGNPDNCQC
mean lifespan ([1]; Rab transgene co-expressed with LRRK2 G2019S in dopamine neurons): 14.3 days
Average adult lifespan [1]: 10.2 days
rescue of the LRRK2 G2019S premature mortality phenotype (survival) [1]: statistically significant—albeit much weaker—survival benefit

B2: Rab7L1WT: TH-driven wild-type Drosophila RAB7L1 orthologue (termed lightoid) transgene (protein)
chain: MGSRDHLFKVLVVGDAAVGKTSLVQRYSQDSFSKHYKSTVGVDFALKVLQWSDSEMVRLQLWDIAGQERFTSMTRLYYRDASACVIMFDVTNATTFSNSQRWKQDLDSKLTLPSGEPVPCLLLANKSDLSPWAVSRDQIDRFSKENGFTGWTETSVKENKNINEAMRVLVEKMMNNSREDIMSSSTQGNYINLQTKPSPGWTCC
modifications: left off: large carriers
notes: TH-driven wild-type Drosophila RAB7L1 orthologue (termed lightoid) transgene
Average adult lifespan [1]: 23.3 days
rescue of the LRRK2 G2019S premature mortality phenotype (survival) [1]: dramatic rescue

B3: CA RAB7L1: constitutively active RAB7L1 (Q67L, deficient in GTPase activity); in b298 the same words denote the fly transgene (protein, UniProt O14966 1-203, looked up, variant Q67L)
Ras-related protein Rab-7L1: MGSRDHLFKVLVVGDAAVGKTSLVQRYSQDSFSKHYKSTVGVDFALKVLQWSDYEIVRLQLWDIAGLERFTSMTRLYYRDASACVIMFDVTNATTFSNSQRWKQDLDSKLTLPNGEPVPCLLLANKCDLSPWAVSRDQIDRFSKENGFTGWTETSVKENKNINEAMRVLIEKMMRNSTEDIMSLSTQGDYINLQTKSSSWSCC
LRRK2 G2019S dopamine neuron loss phenotype [3]: rescued the LRRK2 G2019S dopamine neuron loss phenotype
LRRK2 mutation-induced neurite length phenotype [4]: significantly suppressed
